Where two headings read alike, the source gives them in different places.
T1: human integrin alphavbeta3 (human, UniProt P06756)
T1 chain 1: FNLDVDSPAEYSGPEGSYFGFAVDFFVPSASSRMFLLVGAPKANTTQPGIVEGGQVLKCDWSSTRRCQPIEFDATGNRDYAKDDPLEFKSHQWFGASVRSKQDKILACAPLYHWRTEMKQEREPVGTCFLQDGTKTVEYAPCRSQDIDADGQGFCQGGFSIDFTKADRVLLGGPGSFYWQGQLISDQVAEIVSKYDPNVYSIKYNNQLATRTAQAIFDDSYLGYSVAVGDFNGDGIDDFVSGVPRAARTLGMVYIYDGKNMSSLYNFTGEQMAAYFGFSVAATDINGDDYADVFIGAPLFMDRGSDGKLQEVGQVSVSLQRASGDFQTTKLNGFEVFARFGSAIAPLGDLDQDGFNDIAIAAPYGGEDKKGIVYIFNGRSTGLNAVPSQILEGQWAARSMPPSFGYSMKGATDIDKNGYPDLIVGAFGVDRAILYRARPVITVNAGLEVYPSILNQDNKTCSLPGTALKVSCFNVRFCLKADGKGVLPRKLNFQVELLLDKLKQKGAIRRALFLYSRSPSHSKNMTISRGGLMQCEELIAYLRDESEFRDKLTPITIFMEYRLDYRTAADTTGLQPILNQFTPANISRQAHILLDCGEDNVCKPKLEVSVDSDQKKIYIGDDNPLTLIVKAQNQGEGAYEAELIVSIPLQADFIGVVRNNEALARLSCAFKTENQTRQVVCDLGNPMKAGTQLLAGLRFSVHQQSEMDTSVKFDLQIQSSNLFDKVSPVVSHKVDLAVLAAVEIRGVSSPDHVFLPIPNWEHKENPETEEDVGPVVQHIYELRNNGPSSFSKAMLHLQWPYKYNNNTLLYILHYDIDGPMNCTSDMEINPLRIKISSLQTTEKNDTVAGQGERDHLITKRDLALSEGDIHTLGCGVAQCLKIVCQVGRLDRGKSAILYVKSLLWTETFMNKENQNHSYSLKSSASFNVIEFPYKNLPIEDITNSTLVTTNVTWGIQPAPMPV
T1 chain 2: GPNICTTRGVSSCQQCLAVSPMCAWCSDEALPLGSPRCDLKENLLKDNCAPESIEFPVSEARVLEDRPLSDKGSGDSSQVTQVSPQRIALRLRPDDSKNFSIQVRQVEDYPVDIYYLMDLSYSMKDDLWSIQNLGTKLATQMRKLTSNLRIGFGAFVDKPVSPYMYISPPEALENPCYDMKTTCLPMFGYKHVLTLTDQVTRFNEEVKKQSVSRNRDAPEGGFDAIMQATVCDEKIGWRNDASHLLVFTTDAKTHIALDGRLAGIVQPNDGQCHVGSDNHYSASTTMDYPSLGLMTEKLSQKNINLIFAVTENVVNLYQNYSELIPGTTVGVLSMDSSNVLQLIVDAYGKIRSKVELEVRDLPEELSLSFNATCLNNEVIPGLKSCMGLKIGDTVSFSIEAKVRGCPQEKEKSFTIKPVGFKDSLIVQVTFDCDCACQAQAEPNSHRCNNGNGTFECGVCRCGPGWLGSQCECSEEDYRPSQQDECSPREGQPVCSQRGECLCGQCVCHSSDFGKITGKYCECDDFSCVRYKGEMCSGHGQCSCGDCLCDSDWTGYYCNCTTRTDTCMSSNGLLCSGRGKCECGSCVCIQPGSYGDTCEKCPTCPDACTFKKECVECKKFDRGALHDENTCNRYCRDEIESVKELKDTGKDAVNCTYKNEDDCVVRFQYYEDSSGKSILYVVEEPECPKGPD

B1: HZD12-IgG4 (antibody, V domains shown)
VH: QVQLVQSGAEVKKPGASVKVSCKASGYAFTSYNMYWVRQAPGQGLEWIGYIDPYNGDTFYNQKFKGKATLTVDKSTSTAYMELSSLRSEDTAVYYCARQNYGSFAYWGQGTLVTVSS
VL: DIVLTQSPGTLSLSPGERATLSCRASQSISNHLHWYQQKPGQAPRLLIKYASQSISGIPSRFSGSGSGTDFTLTISRLEPEDFAVYYCQQSNSWPFTFGQGTKVEIK
B2: HZD12-IgG1 (antibody, V domains shown)
VH: QVQLVQSGAEVKKPGASVKVSCKASGYAFTSYNMYWVRQAPGQGLEWIGYIDPYNGDTFYNQKFKGKATLTVDKSTSTAYMELSSLRSEDTAVYYCARQNYGSFAYWGQGTLVTVSS
VL: DIVLTQSPGTLSLSPGERATLSCRASQSISNHLHWYQQKPGQAPRLLIKYASQSISGIPSRFSGSGSGTDFTLTISRLEPEDFAVYYCQQSNSWPFTFGQGTKVEIK
B3: murine D12 (antibody, V domains shown)
VH: EIQLQQSGPEVVKPGASVKVSCKASGYAFTSYNMYWVKQSHGKSLEWIGYIDPYNGDTFYNQKFKGKATLTVDKSSSTAYMHLNSLTSEDSAVFYCARQNYGSFAYWGQGTLVTVSA
VL: DIVLTQSPATLSVTPGDSVSLSCRASQSISNHLHWYQQRSHESPRLLIKYASQSISGIPSRFRGSGSGTDFTLNINILETEDFGMYFCQQSNSWPFTFGSGTNLEIKR

Legend:
[1] = molecular target: T1, human integrin alphavbeta3; assay: SPR
[2] = molecular target: T1, human integrin alphavbeta3; assay: SPR

Row | Binder | Kd [1] [nM] | Kd [2] [nM]
1 | B1 | 1.1 | –
2 | B2 | 1 | –
3 | B3 | 1.3 | 0.53

Source: patent publication US20070053902 (published 2007)
